Data reported in PMC3903627.

Target: Luciferase-ArgBP2 P1 and EYFP-ArgBP2 P1 (BRET pair)
Assay: BRET
Settings: HEK293T cells, one representative experiment, read off a plot

Substance: Luciferase-ArgBP2 WT and EYFP-ArgBP2 WT (BRET pair) P497A; P500A
- response (0.10 µg YFP fused protein, parent: est. 510): 190 mBu
- response (0.20 µg YFP fused protein, parent: est. 670): 310 mBu
- response (0.30 µg YFP fused protein, parent: est. 740): 390 mBu
- response (0.40 µg YFP fused protein, parent: est. 790): 490 mBu
- response (0.50 µg YFP fused protein, parent: est. 790): 570 mBu
